Target: T1, Methyl-coenzyme M reductase (MCR) subunit α (Methanothermobacter marburgensis …, UniProt P11558 1-550)
T1 sequence (looked up): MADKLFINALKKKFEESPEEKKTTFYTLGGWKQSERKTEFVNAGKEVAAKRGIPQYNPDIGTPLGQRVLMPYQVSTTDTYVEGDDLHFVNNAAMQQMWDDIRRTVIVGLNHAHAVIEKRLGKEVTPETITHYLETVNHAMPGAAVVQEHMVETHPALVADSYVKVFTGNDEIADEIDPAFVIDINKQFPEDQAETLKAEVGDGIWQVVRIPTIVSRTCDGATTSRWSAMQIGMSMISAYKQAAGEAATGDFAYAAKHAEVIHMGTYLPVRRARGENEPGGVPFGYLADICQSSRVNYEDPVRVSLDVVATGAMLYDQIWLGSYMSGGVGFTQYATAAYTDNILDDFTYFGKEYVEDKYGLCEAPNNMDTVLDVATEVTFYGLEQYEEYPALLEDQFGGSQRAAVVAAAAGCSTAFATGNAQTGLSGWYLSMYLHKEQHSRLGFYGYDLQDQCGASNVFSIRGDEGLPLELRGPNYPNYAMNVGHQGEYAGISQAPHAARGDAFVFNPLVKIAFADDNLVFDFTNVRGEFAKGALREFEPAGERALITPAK
Test: crystal structure

B1: Methyl-coenzyme M reductase (MCR) subunit β (natural protein, UniProt P11560 1-443, looked up)
chain: MAKFEDKVDLYDDRGNLVEEQVPLEALSPLRNPAIKSIVQGIKRTVAVNLEGIENALKTAKVGGPACKIMGRELDLDIVGNAESIAAAAKEMIQVTEDDDTNVELLGGGKRALVQVPSARFDVAAEYSAAPLVTATAFVQAIINEFDVSMYDANMVKAAVLGRYPQSVEYMGANIATMLDIPQKLEGPGYALRNIMVNHVVAATLKNTLQAAALSTILEQTAMFEMGDAVGAFERMHLLGLAYQGMNADNLVFDLVKANGKEGTVGSVIADLVERALEDGVIKVEKELTDYKVYGTDDLAMWNAYAAAGLMAATMVNQGAARAAQGVSSTLLYYNDLIEFETGLPSVDFGKVEGTAVGFSFFSHSIYGGGGPGIFNGNHIVTRHSKGFAIPCVAAAMALDAGTQMFSPEATSGLIKEVFSQVDEFREPLKYVVEAAAEIKNEI
binding result: binds

Source: article PMC3098740 (Biochemistry, 2010)
